Results taken from US20110009597A1, “RECOMBINANT GANODERMA LUCIDIUM IMMUNOMODULATORY PROTEIN (rLZ-8) AND USES THEREOF” (priority 2008, published 2011).

Columns and labels:
[1] = tested on: Human Chronic Myelogenous Leukemia K562 Cells; assay: Lethal effect of rLZ-8 on K562 cells (MTT, OD570nm); type: cell-based
Experimental: After sterilization of rLZ-8, we prepared 6 concentrations using IMDM culture medium, which are respectively 3.125 μg·ml^−1, 6.25 μb·ml^−1, 12.5 μg·ml^−, 25 μg·ml^−1, 50 μg·ml^−1, 100 μg·ml^−1.
On 96-orifice culture plate, the pilot aperture plus K562 tumor cells 0.1 ml and rLZ-8 0.1 ml, rLZ-8 concentrations from low to high; negative control group plus K562 tumor cells and culture medium of the 0.1 ml respectively; positive drug control group arsenic trioxide As2O3; make six-aperture multipunches for each group. Placing in 37° C., 5% CO2 incubator 48 h, adding MTT15 μl (5 mg ml^−1) prior to the termination of 4 h, after the termination of cell culture by adding 100 μl 0.1 mol L^−1 hydrochloric acid isopropyl alcohol, testing OD values570nm on the enzyme immunosorbent detector.

spleen = assay: Colony forming unit-spleen and spleen index in radiation model of mice; type: in vivo
Experimental: (§1) rLZ-8 preparation of sterile saline. Divide them into 5 ∞g·kg^−1, 2.5 μg·kg^−1, 1.25 μg·kg^−1, 0.62 μg·kg^−1 dose groups. 0.2 ml/vial.
(§2) Genlei™ Scimax™ [Recombinant human granulocyte colony-stimulating factor injection (rhG-CSF)], production lot: 20060403; 150m/vial is prepared with sterile normal saline into the preparation of 3.2 μg·kg^−1, 0.2 ml/vial.
(§3) The mice were irradiated by 7.5 Gy γ-ray (180 mV, 15 mA) and then divided into seven groups (n=10): (A) negative control; (B) 5 μg·kg−1 dose; (C) 2.5 μg·kg−1 dose; (D) 1.25 μg·kg−1 dose; (E) 0.62 μg·kg−1 dose; (F) positive control (Genlei™ Scimax™); (G) model group. Together with modeling, mice in each group were administered with Genlei™ Scimax™ and rLZ-8 for 9 days, drew blood from tail, tested the number of WBC, weight spleen, calculated index of spleen.

NB4 = assay: PI single stained flow cytometry, apoptosis of NB4; type: cell-based
Experimental: Fluorescence microscope, model Leica ASLMD, K562, NB4. rLZ-8 is classified into high, medium and low three-dose groups respectively, now we prepare them with IMDM culture medium containing 2% FCS into the preparation of 2.5 μg·ml^−1, 0.5 μg/ml, 0.1 μg·ml^−1. […] (PI) 50 μg·ml ^−1.
Establish K562 as the normal control group, rLZ-8 low-dose group (0.1 μg·ml^−1), rLZ-8 medium dose group (0.5 μg·ml^−1), rLZ-8 high-dose group, (2.5 μg·ml^−1); set NB4 as the normal control group, rLZ-8 low-dose group (0.1 μg·ml^−1), rLZ-8 medium dose group (0.5 μg·ml^−1), rLZ-8 high-dose group, (2.5 μg·ml^−1).
Mix K562 and NB4 cells into 24-orifice plate respectively, and supply rLZ-8 in different concentrates, 1 ml/orifice, set 3-orifice multipunches for each group. Put them in 37° C., 5% CO2 incubator for 24 h, collect the cells of each concentrate, PBS washes twice and regulates the cell density to 1×10^6/ml, 70% ice ethanol fixation, adjusts to −20° C. and stays overnight. Wash the cells with PBS twice after fixing the cells, add PI (end density 50 μg·ml^−1) for room temperature and lucifuged hatching 10 min, 1000 r·min^−1 centrifuge 5 min, clear supernatant with disposable 400μ. IPBS re-suspension precipitation. And test on computer in 1 h.

WBC = assay: Treatment of radiation leucopenia model of mice, WBC; type: in vivo; parameters: unit not given here; conditions: 7.5 Gy γ-ray
Experimental: as §1, §2, §3

HL-60 = assay: Annexin V-FITC flow cytometry, apoptosis of HL-60; type: cell-based; conditions: Annexin V/PI
Experimental: FACS Calibur flow cytometry, U.S. Becton-Dickinson.Coompany. NB4, HL-60. rLZ-8 is prepared with IMDM culture medium containing 2% FCS into the preparation of 0.1 μg·ml^−1, 0.5 μg·ml^−1, 2.5 μg·ml^−1, arsenic trioxide (As2O3) 0.5 μg·ml^−1 AnnexinV-FITC kit: combining buffer solution 4×; Propidium iodide solution (PI), 20 μg·ml−1, 0.2 ml; recombinant human Annexin V/FITC, 0.1 ml.
Establish NB4 normal control group, positive drug group (As2O3 0.5 μg·ml^−1), protein low-dose group (0.1 μg·ml^−1), medium-dose group (0.5 μg·ml^−1), high-dose group, (2.5 μg·ml^−1); establish HL-60 normal control group, protein low-dose group (0.1 μg·ml^−1), medium-dose group (0.5 μg·ml^−1), high-dose group, (2.5 μg·ml^−1).
Mix NB4 and HL-60 cell into 24-orifice plate respectively, 1 ml/hole supply rLZ-8 in different concentrates, set 3-orifice multipunches for each group. Put them in 37° C., 5% CO2 incubator for 24 h, collect the cells of each concentrate, washes the cells twice with pre-cooled PBS 4° C., with 250 μl binding buffer solution re-suspending cells and regulates the cell density to 1×10^6/ml, taking out 100 μl to 5 ml streaming tube, and add 5 μl Annexin V/FITC and 10 μl 20 μg·ml^−1 PI solution, after mixing put it in room temperature and lucifuged hatching 15 min, add 400 μl PBS by flow cytometry analysis.

B1: rLZ-8: Recombinant Ganoderma Lucidum Immune Regulatory Protein expressed in Pichia pastoris (protein, UniProt P14945 2-111, looked up)
Immunomodulatory protein Ling …: SDTALIFRLAWDVKKLSFDYTPNWGRGNPNNFIDTVTFPKVLTDKAYTYRVAVSGRNLGVKPSYAVESDGSQKVNFLEYNSGYGIADTNTIQVFVVDPDTNNDFIIAQWN
lethal effect in vitro on K562 tumor cells (in words) ([1]; 3.125-100 μg·ml^−1): strong lethal effect | Growth inhibition rate (%) ([1]; rLZ-8 3.125 μg ml^−1, 48 h): 34.7% | OD570 nm ([1]; rLZ-8 3.125 μg ml^−1, 48 h): 0.66 ± 0.03 | Growth inhibition rate (%) ([1]; rLZ-8 6.25 μg ml^−1, 48 h): 42.6% | OD570 nm ([1]; rLZ-8 6.25 μg ml^−1, 48 h): 0.58 ± 0.03 | Growth inhibition rate (%) ([1]; rLZ-8 12.5 μg ml^−1, 48 h): 48.5% | OD570 nm ([1]; rLZ-8 12.5 μg ml^−1, 48 h): 0.52 ± 0.05 | Growth inhibition rate (%) ([1]; rLZ-8 25 μg ml^−1, 48 h): 69.3% | OD570 nm ([1]; rLZ-8 25 μg ml^−1, 48 h): 0.31 ± 0.02 | Growth inhibition rate (%) ([1]; rLZ-8 50 μg ml^−1, 48 h): 75.2% | OD570 nm ([1]; rLZ-8 50 μg ml^−1, 48 h): 0.25 ± 0.04 | Growth inhibition rate (%) ([1]; rLZ-8 100 μg ml^−1, 48 h): 81.2% | OD570 nm ([1]; rLZ-8 100 μg ml^−1, 48 h): 0.19 ± 0.03 | colony forming unit-spleen number (spleen; rLZ-8 0.62 μg·kg^−1): 8.9 ± 0.41 | growth rate (spleen; rLZ-8 0.62 μg·kg^−1): 50% | index (spleen) (spleen; rLZ-8 0.62 μg·kg^−1): 0.50 ± 0.10 | colony forming unit-spleen number (spleen; rLZ-8 1.25 μg·kg^−1): 6.3 ± 0.21 | growth rate (spleen; rLZ-8 1.25 μg·kg^−1): 30% | index (spleen) (spleen; rLZ-8 1.25 μg·kg^−1): 0.24 ± 0.13 | colony forming unit-spleen number (spleen; rLZ-8 2.50 μg·kg^−1): 14.3 ± 0.03 | growth rate (spleen; rLZ-8 2.50 μg·kg^−1): 69% | index (spleen) (spleen; rLZ-8 2.50 μg·kg^−1): 0.52 ± 0.12 | colony forming unit-spleen number (spleen; rLZ-8 5 μg·kg^−1): 9.7 ± 0.16 | growth rate (spleen; rLZ-8 5 μg·kg^−1): 54% | index (spleen) (spleen; rLZ-8 5 μg·kg^−1): 0.22 ± 0.09 | Apoptosis rate (NB4; NB4, rLZ-8 0.1 μg·ml^−1, 24 h): 9.23% | Apoptosis rate (NB4; NB4, rLZ-8 0.5 μg·ml^−1, 24 h): 27.51% | Apoptosis rate (NB4; NB4, rLZ-8 2.5 μg·ml^−1, 24 h): 38.60% | WBC, 5th day (WBC; rLZ-8 0.62 μg·kg^−1): 0.73 ± 0.43 | WBC, 7th day (WBC; rLZ-8 0.62 μg·kg^−1): 0.26 ± 0.43 | WBC, 9th day (WBC; rLZ-8 0.62 μg·kg^−1): 0.64 ± 0.01 | WBC, 5th day (WBC; rLZ-8 1.25 μg·kg^−1): 0.82 ± 0.45 | WBC, 7th day (WBC; rLZ-8 1.25 μg·kg^−1): 0.65 ± 0.45 | WBC, 9th day (WBC; rLZ-8 1.25 μg·kg^−1): 0.70 ± 0.12 | WBC, 5th day (WBC; rLZ-8 2.50 μg·kg^−1): 0.69 ± 0.54 | WBC, 7th day (WBC; rLZ-8 2.50 μg·kg^−1): 0.56 ± 0.54 | WBC, 9th day (WBC; rLZ-8 2.50 μg·kg^−1): 0.54 ± 0.13 | WBC, 5th day (WBC; rLZ-8 5 μg·kg^−1): 0.84 ± 0.32 | WBC, 7th day (WBC; rLZ-8 5 μg·kg^−1): 0.31 ± 0.32 | WBC, 9th day (WBC; rLZ-8 5 μg·kg^−1): 0.90 ± 0.14 | Apoptosis rate (HL-60; HL-60, rLZ-8 0.1 μg·ml−1, 24 h): 30.5% | Apoptosis rate (HL-60; HL-60, rLZ-8 0.5 μg·ml−1, 24 h): 40.7% | Apoptosis rate (HL-60; HL-60, rLZ-8 2.5 μg·ml−1, 24 h): 47.7%
